Measurements: publication PMC8948244, “Pumilio protects Xbp1 mRNA from regulated Ire1-dependent decay”

Assays:
[1] = biological target: T1, hPUM1-HD (Pum-HD domain of human PUM1) (Homo sapiens, UniProt Q14671 828-1168); assay: EMSA; 100-300 nM protein, 10 nM probe; 10 mM Hepes/KOH pH 7.4, 50 mM KCl, 3 mM MgCl2, 1 mM EDTA, 0.1 mg/ml yeast tRNA, 2 mM DTT, 0.01% Tween-20, 0.2 U RNasin, 5% glycerol, 20 µl; 1 h on ice; 6% native gel, 0.5x TBE, room temperature; conditions: protein: recombinant; label: 3' biotin-TEG; single strand
[2] = biological target: T1, hPUM1-HD (Pum-HD domain of human PUM1); assay: competition; EMSA; 5x, 10x, 50x excess (source data label: 25x) over biotin-labeled WT probe; no effect; 10 mM Hepes/KOH pH 7.4, 50 mM KCl, 3 mM MgCl2, 1 mM EDTA, 0.1 mg/ml yeast tRNA, 2 mM DTT, 0.01% Tween-20, 0.2 U RNasin, 5% glycerol, 20 µl; 1 h on ice; 6% native gel, 0.5x TBE, room temperature; conditions: protein: recombinant; single strand
[3] = biological target: T1, hPUM1-HD (Pum-HD domain of human PUM1); assay: competition; EMSA; 5x, 10x, 50x excess over biotin-labeled WT probe; shifted band disappeared; 10 mM Hepes/KOH pH 7.4, 50 mM KCl, 3 mM MgCl2, 1 mM EDTA, 0.1 mg/ml yeast tRNA, 2 mM DTT, 0.01% Tween-20, 0.2 U RNasin, 5% glycerol, 20 µl; 1 h on ice; 6% native gel, 0.5x TBE, room temperature; conditions: protein: recombinant; single strand

T1 sequence (Q14671 828-1168): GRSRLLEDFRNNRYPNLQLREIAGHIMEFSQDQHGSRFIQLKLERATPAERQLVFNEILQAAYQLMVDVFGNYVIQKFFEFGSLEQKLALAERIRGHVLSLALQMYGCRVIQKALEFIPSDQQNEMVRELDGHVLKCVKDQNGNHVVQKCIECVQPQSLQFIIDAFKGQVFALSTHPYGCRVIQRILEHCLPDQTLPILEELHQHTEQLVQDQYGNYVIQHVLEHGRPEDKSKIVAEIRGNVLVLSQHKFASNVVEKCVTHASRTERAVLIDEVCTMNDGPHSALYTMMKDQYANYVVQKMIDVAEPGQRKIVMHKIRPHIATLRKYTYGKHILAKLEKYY

GAUAGGCUGUACAUAAAUUCAUAAUCG (ssRNA) [pum1site-wt-3BioTEG (Xbp1 3'UTR PRE1)]
binding result [1]: binds

GAUAGGCACAACAUAAAUUCAUAAUCG (ssRNA) [pum1site-mut (unlabeled competitor, UGUA to ACAA)]
binding result [2]: no binding

GAUAGGCUGUACAUAAAUUCAUAAUCG (ssRNA) [pum1site-wt (unlabeled competitor)]
binding result [3]: binds
